Assay: yeast display, Sf9 membrane polyspecificity reagent, FACS + sequencing; frameworks hold sequencing errors
Outline: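 Galactose induction of a Saccharomyces cerevisiae BJ5465 synthetic nanobody display library ran 36–48 hours. The cells were then stained for 1 hour at 4 °C with 10% biotinylated, detergent-solubilized Sf9 membrane reagent, pulled down on streptavidin microbeads and FACS-sorted into low and high (top ~1%) gates on expression and reagent-binding fluorescence. Labels for polyreactivity follow the gate of origin.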

Sequence	polyreactivity (PSR sort gate)
QVQLVESGGGLVQAGGSLRLSCAASGFTFWYYAMGWYRQAPGKERELVATISRGGGSTYYADSVKGRFTISRDNAKNTVYLQMNSLKPEDTAVYYCNAALTRVSRFWGGDYYYWGQGTQVTVSS	high polyreactivity
QVQLVESGGGLVQAGGSLRLSCAASGRTLQGYAMGWYRQEPGKERELVAAISRGGGSTYADSVKGRFTISRDNAKNTVYLQMNSLKPEDTAVYYCNKKSYYRYYWGQGTQVTVSS	high polyreactivity
QVQLVESGGGLVQAGGSLRLRCAASGMGWYRQAPGKEWEKVATITWSDGITYADSVKGRFTISRDNAKNTVYLQMNSLKPEDTAVYYCNADWDQTGTVFYSFGLREMDSWGQCTQVTVSS	low polyreactivity
QVQLVESGGGLVQAGGSLRLSCAASGRIFVYNVMGWYRQAPGKERELVAAISWGTGSTYADSVKGRFTISRDNAKNTVYLQMNSLKPEDTAVYYCAAPSPRSRAYTYRGDYWGQGTQVTVSS	low polyreactivity
QVQLVESGGGLVQAGGSLRLSCAASGSIFSLYAMGWYRQAPGKERELVAAISSSGTSTYYADSVKGRFTISRDNAKNTVYLQMNSLKPEDTAVYYCNAYREFDWGQGTQVTVSS	high polyreactivity
QVQLVESGGGLVQAGGSLRLSCAASGSIFVYNTMAWYRPAPVKERELVAAISSSGGSTYYADSVKGRFTISRDNAKNTVYLQMNSLKPEDTAVYYCAKGPLYSLFFQLDAPYRYGYWGQGTQVTVSS	low polyreactivity
QVQLVESGVGLVQAGGSRRLSCAASGRTFFDNVMGWYRQAPGKERELVAAIRSAGTTYYADSVKGRFTISRDNAKNTVYLQMNRLKPEDTAVYYCAATNRYYWSYFYQAKYGYWGQGTQVTVSS	low polyreactivity
QVQLVESGGGLVQAGGSLRLSCAASGITFLPYAMGWYRQAPGKERELVAAISWRGGRTYYADSVKGRFTISRDNAKNTVYLQMNSLKPEDTAVYYCAAVLVRKSGITYDYWGQGTQVTVSS	high polyreactivity
QVQLVESGAGLVQAGGSLRLSCAASGYTFYFYAMGWYRQAPGKERELVAAITGGGTTSYADSVKGRFTISRDNAKNTVYLQMNSLKPEDTAVYYCNVLFADKSDYCGQGTQVTVSS	low polyreactivity
QVQLVESGGGLVQAGGSLRLSCAASGRIFVQYAMGWYRQAPGKERELVAAISYSGGRTYYADSVKGRFTISRDNAKNTVYLQMNSLKPEDTAVYYCAAVRAGYYGYWGKGTQVTVSS	high polyreactivity
QVQLVESGGGLVQAGGSLRLSCAASGSIFKYNTMGWYIQAPGKERELVATISGGGRTYYADSVKGRFTISRDNAKNTVYLQMNSLKPEDTAVYYCAARKRGTFTYDYWGQGTQVTVSS	high polyreactivity
QVQLVESRGGLVQAGGSLRISCAASGRIFGYNAMGWYRQAPGKERELVAAISASGGRTYYADSVKARFTISRDNAKNTVYLQMNSLKPEDTAVYYCATKYRSFYSYDYWGQGTQVTVSS	high polyreactivity
QVQLVESGGGLVQAGGSLRLSCAASGSTLGSNAMGWYRQAPGKERELVAAITWSGGTTYYADSVKGRFTISRDNAKNTVYLQMISLKPEDTAVYYCATGQSVIYRYEYWGQGTKVTVSS	low polyreactivity
QVQLVESGGGLVQAGGSLRLSCAASGNTFSNYAMGWYRQAPGKEREFVAAIRKSGASTYYADSVKGRFTISRDNAKNSVYLQMNSLKPEDTAVYYCAADGQVSFALGFDYWGQGTQVTVSS	high polyreactivity
QVQLVESGGGLVQAGGSHRLRCADSGFTFYSNAMGCYRQAPGKERELVASITWSGGNTYYADSVKGRFTISRDKAKTTVYLQMNSLKPEDTAVYYCAAGYSRDVQGYARAYRFYYWGQGTQVTVSS	high polyreactivity
QVQLVESGGGLVQAGGSLRLSCAASGSIFYFNAMGWYRQAPGKERELVADISWSGGESTYYADSVKGRFTISRDNAKNTVYLQMNSLKPEYTAVYYCAADYWSPYVYVYWGQGTQVTLSS	low polyreactivity
QVQLVESGVGLVQAGGSLRLSCAASGSISQGNAMGWYRQAPGKERELVAANRWTSGRTYYADSVKGRFTISRDIAKNTVYLQMNSLKPEDTAEYYCAAYYVYYTPTLFDRVYWGQGSQVTVSS	low polyreactivity
QVQLVESGGGLVQAGGSLRLSCAASGITFYKKVMGWYRPAPGKEKELVAAISSSGGSTYYADSVKGRFTISRDNAKNTVYLQRNSLKPEDTAVYYCAADDPLYTPYEFDYWGQGTQVTVSS	low polyreactivity
QVQLVESGGGLVQAGGSLRLSCAASGFIFVDYDMGWYRQAPGKERELVASINWSGGSTDYADSVKGRFTISRDNAKNTVYLQMNSLKPEDTAVYYCAAEGQDGRFYWGQGTQVTVSS	low polyreactivity
QVQLVESGGGLVQAGGSLRLSCAASGFTFGNNAMGWYRQAPGKERELVAGISRTGGRTYYADSVKGRYTISRDNAKNTVYFQMNSLKPEDTGVYYCNADSTLYTGYDYWGQGTQVTVSS	high polyreactivity
QVQLVESGGGLVQAGGSLRLSCAASGSTFVSYAMGWYRQAPGKERELVAAISTSGGTTYYADSVKGRFTISRDNAKNTVYLQMNSLKPEDTAVYYCAAYDFKYKGYDYWGQGTQVTVSS	high polyreactivity

Sequence	polyreactivity (PSR sort gate)
QVQLVESGGGLVQAGGSLRLSCAASGRTFGNYAMGWYRQAPAKESELVAAITGRGGSTHYADSVKGRFTISRDNAKYTVYLQMNSLKPEDTAVYDCAADYRYNRGITSNKDYDYWGQGTQVTVSS	low polyreactivity
QVQLVESGGGLVQAGGSLRLSCAASGSTFVYYAMGWYRQAPGKEREFVAGISRSGGSTYYADSVKGRFTISRDNAKNTVYLQMNSLIPEDTAVYYCNARGGLPKYGYWGQGTQVTVSS	high polyreactivity
QVQLEESGGGLVQAGGSLRLSCAASGRTFTVYAMGWYRQAPGKERELVAGIRRGDSTYYADSVKGRFTISRDNAKNTVYLQMNSLKPEDTAVYYCAARPAGYGHYKYYYWGQGTQVTVSS	high polyreactivity
QVQLVESGGGLVQAGGSLRLSCAASGSTFRTNGMGWYRQAPGKERELVAAITRGTSTNYADSVKGRFTISRDNAKNTVYLQMNSLKPEDTAVYYCAADVTGGRKYDYWGQGTQVTVSS	low polyreactivity
QVQLVESGGGLVQAGGSLRLSFAASGRIFVRYSMGWYRQAPGKERELVAAISSSGSSTYYADSVKGRFTISRDNAQNTFYLKMNCLKPEDTAVYYCAAASVRYPRYEYWGQGTQVTVSS	high polyreactivity
QVQLVESGGGLVQAGGSLRLSCAASGLTFSYYAMGWYRPAPGKERELVAAITSSGGNTYYADSVKGRFTISRDYAKNTVYLQMNSLKPEDTAGDSCTARRYLRGYGYGYWGQGTQVTVSS	high polyreactivity
QVHLVESGGGLVQAGGSLRLSCAASGSIYVNTMGWYRPAPGKERELVAGISRSTGRTYYADSVKGRFTISRDNAKNTVYLQMNSLKPEDTAVYYCNTVPWRRWGYDYWGQGTQVTVSS	high polyreactivity
QVQLVESGGGLVQAGGSLRLSCAASGRTFYYYAMGWYRQAPGKEREFVAAITTRGGSTYYADSVKGRFTISRDNAKNTVYLQMNSLKPEDTAVYYCAARSYYQGGYYYWGQGTQVTVSS	high polyreactivity
QVQLVESGGGLVQAGGSLRLSCAASGRIFDYYTMGWSRQAPGKVRELVAAISSGGRTYYADSVKGRFTISRDNAKNTVYLQMNSLKPEDTAVYYCNALDTRHTYTYTGGKRFPYDHWGQGTQVTVSS	low polyreactivity
QVQLEESGGGLVQAGGSLRLSCAASGSIFVVYAMGWSRQAPGKERELVASIRTGGSTNYADSEKGRFTISRDNAKNNVYLQMNSLKPEDTAVYYCAAASWNSNRHYYVARYYYWGQGTQVTVSS	high polyreactivity
QVQLVESGGGLVQAGGSLRLSCAASGSTFYVYAMGWYRQAPGKERELVAAITVRGGSTYYADSVKGRFTISRDNAKNTVYLQMNSLKPEDTAVYYCAVDVSKPYYEMDYWGQGTQVTVSS	high polyreactivity
QVQLVESGGGLVQAGGSLRLSCAASGRIFTSNAMGWYRQAPGKERELVAAISKSGGRTYYADSVKGRFTISRDNAKNTVYLQMNSLKPEDTAVYYCAKDNYWGQGTQVTVSS	high polyreactivity
QVQLVESGGGLVQAGGSLRLSCAASGLTIWRYAMGWYRQAPGKEREFVATISQNGGRTYYADSVKGRFTISRDNAKNTVYLQMNSLKPEVNAVYYCAADDWRWGYDYWGQGTQVTVSS	high polyreactivity
QDQLVESGGGLVQAGGSLRLSCAASGRIFVVYAMGCYRQAPGKERELVAAITGGGRTNYADSVKGRFTISRENAKNTVYLQMKSLKPEDTAVYYCAAGTRSDARRYFYWGQGTQVTVSS	low polyreactivity
QVQLVESGGGLVQAGGSLRLSCAASGNTFVSNAMGWYRQAPGKERELVAAIDSGGSTNYADSVKGRFTISRDNEKNTVYLQMKSLKPEDTAVYYCNRTSVYYYYWGQGTQVTVSS	low polyreactivity
QVQLVESGGGLVQAGGSLRLSCAASGLIFGGTAMGWYRQAPGKERELVAAITYRTGSTYYADSVKGRFTISRDNAKNTVYLQMNSLKPEDTAVYYCAAAVSLGYPVAFYYWGQGTQVTVSS	low polyreactivity
QVQLVESGGGLVQAGGSLRLSCAASGRIFGYTMGWYRPAPGKERELVAAISRSAGSTYYADSVKGRFTISRDNAKNTVYLQMNSLKPEDTAVYYCAATGRYYREYDYWGQGTQVTVSS	high polyreactivity
QVQLVESGGCLVQAGGSLRLSCAASGSTSDIYARGWYSPAPGKEREFVAARSLTGGTTYYAASVKGRFTISCDNAKNTVYLQMNSLKPEDTAVYYCNADVGWWGYDDDYWGQGTQVTVSS	high polyreactivity
QVQLVESGGGLVQAGGSLRLSCAASGSTFDYYAMGWYRQAPGKERELVAAISRTGGRTYYADSVKGRFTISRDNAKNTVYLQMNSLKPEDTAVYYCNAVTRIGGGDYDYWGQGTQVTGSS	low polyreactivity
QVQLVESGGGLVQAGGSLRLSCAASGIIFYEYAMGWYRQAPGKERELVAVITSGGTTNYADSVKGRFTISRDNAKNTVYLQMNSLKPEDTAVYYCAADVYWEFSPEYDYWGQGTQVTVSS	low polyreactivity
